Source: article PMC9482650, “Quantitative fragmentomics allow affinity mapping of interactomes” (Nature Communications, 2022)
Values belong to the binder of their own block, whether it stands above or below them.

Columns and labels:
Experiment in all cases: holdup assay
Parameters in all cases: key: below the threshold = too weak to quantify, mostly under pKd 3.1 to 4
CASK, O14936 = biological target: CASK, O14936
TJP1_2, Q07157 = biological target: TJP1_2, Q07157
NHERF3_3, Q5T2W1 = biological target: T1, NHERF3_3, Q5T2W1
T1 sequence (Q5T2W1 238-333, limits assumed, looked up): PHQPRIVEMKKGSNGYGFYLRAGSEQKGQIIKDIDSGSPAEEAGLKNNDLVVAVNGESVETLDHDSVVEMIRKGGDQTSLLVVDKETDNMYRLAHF

LAP2, Q96RT1 = biological target: LAP2, Q96RT1
Chain of LAP2, Q96RT1 (Q96RT1 other isoform, or with tags, fused parts or gaps): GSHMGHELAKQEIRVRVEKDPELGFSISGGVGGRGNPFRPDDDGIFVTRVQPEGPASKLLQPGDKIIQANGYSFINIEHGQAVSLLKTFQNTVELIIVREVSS

Inadl_8, Q8NI35 = biological target: Inadl_8, Q8NI35
Chain of Inadl_8, Q8NI35 (Q8NI35 1425-1530): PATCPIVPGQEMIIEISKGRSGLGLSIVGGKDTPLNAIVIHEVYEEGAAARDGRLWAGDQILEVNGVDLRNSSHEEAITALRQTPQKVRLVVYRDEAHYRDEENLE

SCRIB_2, Q14160 = biological target: SCRIB_2, Q14160
Chain of SCRIB_2, Q14160 (Q14160 857-960): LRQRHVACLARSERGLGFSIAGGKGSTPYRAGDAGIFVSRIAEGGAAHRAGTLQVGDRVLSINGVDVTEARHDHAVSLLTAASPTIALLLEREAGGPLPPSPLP

GRID2IP_1, A4D2P6 = biological target: GRID2IP_1, A4D2P6
Chain of GRID2IP_1, A4D2P6 (A4D2P6 1-87): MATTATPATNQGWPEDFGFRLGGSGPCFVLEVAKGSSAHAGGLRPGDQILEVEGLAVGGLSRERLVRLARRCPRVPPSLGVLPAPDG

GORASP2, Q9H8Y8 = biological target: GORASP2, Q9H8Y8
DLG4_1, P78352 = biological target: DLG4_1, P78352
Chain of DLG4_1, P78352 (P78352 62-152): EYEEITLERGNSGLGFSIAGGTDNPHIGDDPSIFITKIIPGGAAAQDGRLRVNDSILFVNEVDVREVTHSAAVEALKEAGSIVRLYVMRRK

HTRA3, P83110 = biological target: T2, HTRA3, P83110
T2 sequence (P83110 354-453, limits assumed, looked up): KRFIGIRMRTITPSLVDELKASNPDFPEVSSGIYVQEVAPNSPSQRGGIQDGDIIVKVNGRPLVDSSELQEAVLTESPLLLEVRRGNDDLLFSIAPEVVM

Inadl_5, Q8NI35 = biological target: Inadl_5, Q8NI35
Chain of Inadl_5, Q8NI35 (Q8NI35 673-780): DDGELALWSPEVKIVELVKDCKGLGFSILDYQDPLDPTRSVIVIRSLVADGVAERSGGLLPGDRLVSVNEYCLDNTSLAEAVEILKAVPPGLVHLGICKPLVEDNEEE

GRIP1_7, Q9Y3R0 = biological target: T3, GRIP1_7, Q9Y3R0
T3 sequence (Q9Y3R0 999-1096, limits assumed, looked up): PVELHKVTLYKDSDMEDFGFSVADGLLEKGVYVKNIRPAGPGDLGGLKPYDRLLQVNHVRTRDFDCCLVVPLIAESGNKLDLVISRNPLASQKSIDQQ

GORASP1, Q9BQQ3 = biological target: GORASP1, Q9BQQ3
Chain of GORASP1, Q9BQQ3 (Q9BQQ3 1-208): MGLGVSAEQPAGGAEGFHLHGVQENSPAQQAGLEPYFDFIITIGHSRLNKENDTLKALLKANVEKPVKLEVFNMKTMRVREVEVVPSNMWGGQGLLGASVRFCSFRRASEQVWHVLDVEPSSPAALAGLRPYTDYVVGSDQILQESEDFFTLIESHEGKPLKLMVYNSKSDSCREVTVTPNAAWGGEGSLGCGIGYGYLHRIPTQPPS

MAGI2_6, Q86UL8 = biological target: MAGI2_6, Q86UL8
Chain of MAGI2_6, Q86UL8 (Q86UL8 1141-1229): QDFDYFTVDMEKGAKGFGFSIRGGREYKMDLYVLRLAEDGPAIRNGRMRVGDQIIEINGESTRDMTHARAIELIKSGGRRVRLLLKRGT

NHERF3_4, Q5T2W1 = biological target: T4, NHERF3_4, Q5T2W1
T4 sequence (Q5T2W1 373-468, limits assumed, looked up): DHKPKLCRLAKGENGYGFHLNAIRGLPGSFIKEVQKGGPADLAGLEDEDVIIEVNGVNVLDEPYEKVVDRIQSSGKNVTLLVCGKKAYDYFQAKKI

DLG3_1, Q92796 = biological target: T5, DLG3_1, Q92796
T5 sequence (Q92796 125-227, limits assumed, looked up): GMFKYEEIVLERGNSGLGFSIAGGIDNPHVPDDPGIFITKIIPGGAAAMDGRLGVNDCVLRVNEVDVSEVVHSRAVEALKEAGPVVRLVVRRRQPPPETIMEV

PDZD2_2, O15018 = biological target: T6, PDZD2_2, O15018
T6 sequence (O15018 329-429, limits assumed, looked up): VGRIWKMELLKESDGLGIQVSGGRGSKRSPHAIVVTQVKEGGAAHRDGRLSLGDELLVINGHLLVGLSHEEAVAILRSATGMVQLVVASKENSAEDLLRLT

MPDZ_5, O75970 = biological target: T7, MPDZ_5, O75970
T7 sequence (O75970 695-796, limits assumed, looked up): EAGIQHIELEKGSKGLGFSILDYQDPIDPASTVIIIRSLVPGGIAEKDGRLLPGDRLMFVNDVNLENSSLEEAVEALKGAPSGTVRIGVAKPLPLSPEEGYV

RHPN1, Q8TCX5 = biological target: T8, RHPN1, Q8TCX5
T8 sequence (Q8TCX5 508-602, limits assumed, looked up): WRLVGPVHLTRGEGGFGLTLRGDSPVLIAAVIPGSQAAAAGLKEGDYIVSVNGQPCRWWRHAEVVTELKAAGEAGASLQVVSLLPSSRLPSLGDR

DLG3_2, Q92796 = biological target: T9, DLG3_2, Q92796
T9 sequence (Q92796 221-321, limits assumed, looked up): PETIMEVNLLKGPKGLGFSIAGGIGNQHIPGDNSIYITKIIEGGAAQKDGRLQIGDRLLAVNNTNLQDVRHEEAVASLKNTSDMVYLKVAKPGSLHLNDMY

LIN7A, O14910 = biological target: T10, LIN7A, O14910
T10 sequence (O14910 103-200, limits assumed, looked up): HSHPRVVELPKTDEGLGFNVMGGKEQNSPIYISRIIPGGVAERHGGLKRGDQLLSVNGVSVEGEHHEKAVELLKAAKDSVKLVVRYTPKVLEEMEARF

SNTB1, Q13884 = biological target: T11, SNTB1, Q13884
T11 sequence (Q13884 107-205, limits assumed, looked up): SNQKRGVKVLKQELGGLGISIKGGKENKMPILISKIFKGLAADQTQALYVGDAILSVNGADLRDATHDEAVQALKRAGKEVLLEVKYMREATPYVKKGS

MAGI1_1, Q96QZ7 = biological target: MAGI1_1, Q96QZ7
Chain of MAGI1_1, Q96QZ7 (Q96QZ7 1-106): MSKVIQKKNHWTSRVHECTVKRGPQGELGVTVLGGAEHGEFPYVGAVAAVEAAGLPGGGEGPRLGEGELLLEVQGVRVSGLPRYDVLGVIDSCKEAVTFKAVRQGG

FRMPD2_1, Q68DX3 = biological target: FRMPD2_1, Q68DX3
Chain of FRMPD2_1, Q68DX3 (Q68DX3 770-861): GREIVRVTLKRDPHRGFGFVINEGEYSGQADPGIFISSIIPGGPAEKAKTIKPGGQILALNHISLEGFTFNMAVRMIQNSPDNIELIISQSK

MAGI3_2, Q5TCQ9 = biological target: MAGI3_2, Q5TCQ9
Chain of MAGI3_2, Q5TCQ9 (Q5TCQ9 398-503): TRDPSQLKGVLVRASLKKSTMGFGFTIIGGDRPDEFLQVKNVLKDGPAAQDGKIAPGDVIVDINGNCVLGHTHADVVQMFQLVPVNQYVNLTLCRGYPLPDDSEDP

FRMPD2_3, Q68DX3 = biological target: FRMPD2_3, Q68DX3
Chain of FRMPD2_3, Q68DX3 (Q68DX3 1073-1166): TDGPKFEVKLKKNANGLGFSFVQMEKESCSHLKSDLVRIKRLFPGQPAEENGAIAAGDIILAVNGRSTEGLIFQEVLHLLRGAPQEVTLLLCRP

FRMPD2_2, Q68DX3 = biological target: FRMPD2_2, Q68DX3
Chain of FRMPD2_2, Q68DX3 (Q68DX3 944-1038): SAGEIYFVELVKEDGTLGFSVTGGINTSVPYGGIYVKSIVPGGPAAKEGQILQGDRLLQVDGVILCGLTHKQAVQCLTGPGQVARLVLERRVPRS

[1] = plain residues with an end cap or a label only (N-terminal biotin on a linker: ado-ado)
[2] = plain residues with an end cap or a label only (N-terminal biotin on a linker: ahx)

Chain of TJP1_2, Q07157 (Q07157 181-274): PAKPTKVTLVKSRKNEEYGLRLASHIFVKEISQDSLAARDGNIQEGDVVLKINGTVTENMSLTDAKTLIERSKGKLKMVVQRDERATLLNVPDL
Chain of CASK, O14936 (O14936 487-570): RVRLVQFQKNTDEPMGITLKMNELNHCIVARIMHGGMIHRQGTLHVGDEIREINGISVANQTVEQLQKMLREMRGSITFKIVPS

Binder: MHIQEKGFHV [EPHA6, Q9UF33]
pKd (CASK, O14936; [1]): below the threshold
pKd (TJP1_2, Q07157; [1]): 3.52
pKd (NHERF3_3, Q5T2W1; [1]): below the threshold
pKd (LAP2, Q96RT1; [1]): below the threshold
pKd (Inadl_8, Q8NI35; [1]): below the threshold
pKd (SCRIB_2, Q14160; [1]): below the threshold
pKd (GRID2IP_1, A4D2P6; [1]): below the threshold
pKd (GORASP2, Q9H8Y8; [1]): 3.62
pKd (DLG4_1, P78352; [1]): below the threshold
pKd (HTRA3, P83110; [1]): 3.61
pKd (Inadl_5, Q8NI35; [1]): below the threshold
pKd (GRIP1_7, Q9Y3R0; [1]): below the threshold
pKd (GORASP1, Q9BQQ3; [1]): below the threshold
pKd (MAGI2_6, Q86UL8; [1]): below the threshold
pKd (NHERF3_4, Q5T2W1; [1]): below the threshold
pKd (DLG3_1, Q92796; [1]): below the threshold
pKd (PDZD2_2, O15018; [1]): below the threshold
pKd (MPDZ_5, O75970; [1]): below the threshold
pKd (RHPN1, Q8TCX5; [1]): below the threshold
pKd (DLG3_2, Q92796; [1]): below the threshold
pKd (LIN7A, O14910; [1]): below the threshold
pKd (SNTB1, Q13884; [1]): below the threshold
pKd (MAGI1_1, Q96QZ7; [1]): below the threshold
pKd (FRMPD2_1, Q68DX3; [1]): below the threshold
pKd (MAGI3_2, Q5TCQ9; [1]): below the threshold
pKd (FRMPD2_3, Q68DX3; [1]): below the threshold
pKd (FRMPD2_2, Q68DX3; [1]): below the threshold

Binder: EKQAKGDTEF [CACYBP, Q9HB71]
pKd (CASK, O14936; [2]): below the threshold
pKd (TJP1_2, Q07157; [2]): below the threshold
pKd (NHERF3_3, Q5T2W1; [2]): below the threshold
pKd (LAP2, Q96RT1; [2]): below the threshold
pKd (Inadl_8, Q8NI35; [2]): below the threshold
pKd (SCRIB_2, Q14160; [2]): below the threshold
pKd (GRID2IP_1, A4D2P6; [2]): below the threshold
pKd (GORASP2, Q9H8Y8; [2]): below the threshold
pKd (DLG4_1, P78352; [2]): below the threshold
pKd (HTRA3, P83110; [2]): below the threshold
pKd (Inadl_5, Q8NI35; [2]): below the threshold
pKd (GRIP1_7, Q9Y3R0; [2]): below the threshold
pKd (GORASP1, Q9BQQ3; [2]): below the threshold
pKd (MAGI2_6, Q86UL8; [2]): below the threshold
pKd (NHERF3_4, Q5T2W1; [2]): below the threshold
pKd (DLG3_1, Q92796; [2]): below the threshold
pKd (PDZD2_2, O15018; [2]): below the threshold
pKd (MPDZ_5, O75970; [2]): below the threshold
pKd (RHPN1, Q8TCX5; [2]): below the threshold
pKd (DLG3_2, Q92796; [2]): below the threshold
pKd (LIN7A, O14910; [2]): below the threshold
pKd (SNTB1, Q13884; [2]): below the threshold
pKd (MAGI1_1, Q96QZ7; [2]): below the threshold
pKd (FRMPD2_1, Q68DX3; [2]): below the threshold
pKd (MAGI3_2, Q5TCQ9; [2]): below the threshold
pKd (FRMPD2_3, Q68DX3; [2]): below the threshold
pKd (FRMPD2_2, Q68DX3; [2]): below the threshold

Continued, values first:

pKd (CASK, O14936; [1]): below the threshold
pKd (TJP1_2, Q07157; [1]): below the threshold
pKd (NHERF3_3, Q5T2W1; [1]): below the threshold
pKd (LAP2, Q96RT1; [1]): 3.48
pKd (Inadl_8, Q8NI35; [1]): 3.57
pKd (SCRIB_2, Q14160; [1]): below the threshold
pKd (GRID2IP_1, A4D2P6; [1]): below the threshold
pKd (GORASP2, Q9H8Y8; [1]): 3.61
pKd (DLG4_1, P78352; [1]): below the threshold
pKd (HTRA3, P83110; [1]): below the threshold
pKd (Inadl_5, Q8NI35; [1]): below the threshold
pKd (GRIP1_7, Q9Y3R0; [1]): below the threshold
pKd (GORASP1, Q9BQQ3; [1]): below the threshold
pKd (MAGI2_6, Q86UL8; [1]): below the threshold
pKd (NHERF3_4, Q5T2W1; [1]): below the threshold
pKd (DLG3_1, Q92796; [1]): below the threshold
pKd (PDZD2_2, O15018; [1]): below the threshold
pKd (MPDZ_5, O75970; [1]): below the threshold
pKd (RHPN1, Q8TCX5; [1]): below the threshold
pKd (DLG3_2, Q92796; [1]): below the threshold
pKd (LIN7A, O14910; [1]): below the threshold
pKd (SNTB1, Q13884; [1]): below the threshold
pKd (MAGI1_1, Q96QZ7; [1]): below the threshold
pKd (FRMPD2_1, Q68DX3; [1]): 4
pKd (MAGI3_2, Q5TCQ9; [1]): 4.48
pKd (FRMPD2_3, Q68DX3; [1]): 3.97
pKd (FRMPD2_2, Q68DX3; [1]): below the threshold
Binder: TRKRSGEAAV [PFKM, P08237]

pKd (CASK, O14936; [1]): below the threshold
pKd (TJP1_2, Q07157; [1]): 4.2
pKd (NHERF3_3, Q5T2W1; [1]): below the threshold
pKd (LAP2, Q96RT1; [1]): below the threshold
pKd (Inadl_8, Q8NI35; [1]): below the threshold
pKd (SCRIB_2, Q14160; [1]): 3.57
pKd (GRID2IP_1, A4D2P6; [1]): below the threshold
pKd (GORASP2, Q9H8Y8; [1]): 4.7
pKd (DLG4_1, P78352; [1]): below the threshold
pKd (HTRA3, P83110; [1]): 4.68
pKd (Inadl_5, Q8NI35; [1]): 3.51
pKd (GRIP1_7, Q9Y3R0; [1]): below the threshold
pKd (GORASP1, Q9BQQ3; [1]): 4.08
pKd (MAGI2_6, Q86UL8; [1]): 3.81
pKd (NHERF3_4, Q5T2W1; [1]): below the threshold
pKd (DLG3_1, Q92796; [1]): below the threshold
pKd (PDZD2_2, O15018; [1]): 4.86
pKd (MPDZ_5, O75970; [1]): below the threshold
pKd (RHPN1, Q8TCX5; [1]): 3.5
pKd (DLG3_2, Q92796; [1]): 4.22
pKd (LIN7A, O14910; [1]): below the threshold
pKd (SNTB1, Q13884; [1]): below the threshold
pKd (MAGI1_1, Q96QZ7; [1]): below the threshold
pKd (FRMPD2_1, Q68DX3; [1]): below the threshold
pKd (MAGI3_2, Q5TCQ9; [1]): below the threshold
pKd (FRMPD2_3, Q68DX3; [1]): 3.49
pKd (FRMPD2_2, Q68DX3; [1]): 3.59
Binder: SLNANEVEWF [RNF130, Q86XS8]
